{"source": "paper PMC10992996", "about": "“Human CRB1 and CRB2 form homo- and heteromeric protein complexes in the retina” (Life Science Alliance, 2024)", "binders": {"B1": {"name": "Human canonical CRB2 (Crumbs homolog 2) (natural protein)", "chain": "not shown", "notes": "Crumbs homolog 2, human, cDNA NM_173689; Stood as bait (FLAG copy) and as prey (HA copy) in the pairwise co-IP matrix; each copy carries only one of the two tags; The FLAG copy was the bait of the mass spectrometry pull-downs; also called CRB2-FLAG; CRB2-HA; source: HEK293T, transfected, in lysate (co-IP); HEK293T, transfected, FLAG-IP on beads, washed and purified with 0.01% SDS (retina …)"}}, "target": "T1, CRB1-FLAG p.N1317H (human, UniProt P82279 26-1406, p.N1317H)", "T1 construct": "Crumbs homolog 1, canonical form, human, cDNA NM_202153 as printed, with a patient missense mutation; Made by site-directed mutagenesis of m1; also called CRB1 p.N1317H; p.C1317H; source: HEK293T, transfected, in lysate; not shown: Strep-Strep-FLAG, N-terminal, kept", "T1 sequence (looked up)": "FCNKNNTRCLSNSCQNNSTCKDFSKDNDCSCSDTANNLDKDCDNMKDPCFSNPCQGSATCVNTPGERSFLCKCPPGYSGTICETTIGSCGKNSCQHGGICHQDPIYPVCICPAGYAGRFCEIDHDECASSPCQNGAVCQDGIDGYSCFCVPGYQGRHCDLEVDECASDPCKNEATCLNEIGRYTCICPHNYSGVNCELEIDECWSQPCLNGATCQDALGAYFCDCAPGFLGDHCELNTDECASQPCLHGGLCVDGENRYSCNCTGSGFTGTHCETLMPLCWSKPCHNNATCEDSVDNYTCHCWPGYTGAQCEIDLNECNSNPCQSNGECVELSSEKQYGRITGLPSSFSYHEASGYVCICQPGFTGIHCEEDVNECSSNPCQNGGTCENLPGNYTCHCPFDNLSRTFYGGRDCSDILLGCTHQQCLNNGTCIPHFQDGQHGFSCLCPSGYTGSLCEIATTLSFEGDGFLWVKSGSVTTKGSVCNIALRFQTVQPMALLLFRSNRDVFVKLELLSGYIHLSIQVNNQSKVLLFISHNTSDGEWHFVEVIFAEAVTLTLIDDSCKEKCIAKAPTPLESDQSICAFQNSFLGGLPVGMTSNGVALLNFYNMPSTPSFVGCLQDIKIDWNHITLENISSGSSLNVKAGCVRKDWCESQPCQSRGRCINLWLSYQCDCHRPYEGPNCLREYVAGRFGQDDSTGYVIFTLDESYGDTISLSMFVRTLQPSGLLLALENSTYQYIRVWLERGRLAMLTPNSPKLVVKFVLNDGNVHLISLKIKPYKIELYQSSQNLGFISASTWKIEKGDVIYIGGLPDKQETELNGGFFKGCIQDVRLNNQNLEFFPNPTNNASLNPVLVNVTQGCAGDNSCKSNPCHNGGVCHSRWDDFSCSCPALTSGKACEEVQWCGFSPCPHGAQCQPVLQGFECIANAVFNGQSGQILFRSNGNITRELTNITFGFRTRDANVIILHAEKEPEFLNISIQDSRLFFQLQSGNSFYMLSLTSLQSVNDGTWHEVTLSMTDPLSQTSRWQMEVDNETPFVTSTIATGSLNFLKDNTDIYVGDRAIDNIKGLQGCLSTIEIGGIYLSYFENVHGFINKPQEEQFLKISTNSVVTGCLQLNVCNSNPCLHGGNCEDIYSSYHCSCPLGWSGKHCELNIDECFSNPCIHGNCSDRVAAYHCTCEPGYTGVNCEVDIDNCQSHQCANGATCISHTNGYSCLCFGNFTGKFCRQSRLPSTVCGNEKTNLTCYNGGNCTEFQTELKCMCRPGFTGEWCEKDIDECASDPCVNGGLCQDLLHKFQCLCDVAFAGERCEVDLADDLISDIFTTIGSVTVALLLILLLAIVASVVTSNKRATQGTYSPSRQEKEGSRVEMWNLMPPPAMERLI", "test": "co-IP; HEK293T cells co-transfected pairwise with a FLAG and an HA construct, 48 h; lysis in TBS (30 mM Tris-HCl pH 7.4, 150 mM NaCl) with 0.5% Nonidet P40; FLAG-IP on ANTI-FLAG M2 Affinity Gel 60-90 min at 4°C, elution with FLAG peptide; Western blot with HA and FLAG antibodies; for mutants HA/FLAG signal in eluates relative to WT, three biological replicates", "conditions": "partners not purified", "data": [{"binder": "B1", "values": [{"measurement": "percent reduction of the interaction relative to CRB1 WT", "value": 24, "unit": "%"}]}]}
